Source: paper PMC4288183

Tests used:
[1] = biological target: T1, MNV RdRp (NS7) WT (Murine norovirus 1 strain CW1) (UniProt Q80J95); assay: fluorescence polarization; details: FP: 10 mM Tris-HCl pH 8.0, 30 mM NaCl, 1% glycerol, 0.5 mM 2-mercaptoethanol, 0.1 uM fMps, temperature not stated; synthesis competition: 20 mM Na glutamate pH …
T1 sequence: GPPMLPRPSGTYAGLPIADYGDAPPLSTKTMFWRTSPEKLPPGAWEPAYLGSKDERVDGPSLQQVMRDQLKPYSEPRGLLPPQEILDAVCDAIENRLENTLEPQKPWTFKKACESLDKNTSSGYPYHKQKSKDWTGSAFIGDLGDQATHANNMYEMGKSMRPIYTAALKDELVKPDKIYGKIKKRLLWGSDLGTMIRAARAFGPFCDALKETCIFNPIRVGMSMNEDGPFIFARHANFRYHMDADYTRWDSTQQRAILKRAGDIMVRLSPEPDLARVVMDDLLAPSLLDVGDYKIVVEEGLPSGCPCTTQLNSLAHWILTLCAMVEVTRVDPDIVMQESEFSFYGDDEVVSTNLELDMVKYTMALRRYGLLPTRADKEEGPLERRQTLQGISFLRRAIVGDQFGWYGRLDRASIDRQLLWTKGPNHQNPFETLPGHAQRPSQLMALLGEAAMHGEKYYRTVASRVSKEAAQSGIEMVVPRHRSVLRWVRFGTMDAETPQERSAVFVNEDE

[2] = biological target: T1, MNV RdRp (NS7) WT (Murine norovirus 1 strain CW1); assay: fluorescence polarization competition; details: FP: 10 mM Tris-HCl pH 8.0, 30 mM NaCl, 1% glycerol, 0.5 mM 2-mercaptoethanol, 0.1 uM fMps, temperature not stated; synthesis competition: 20 mM Na glutamate pH …

Row | Sequence | Kd [1] [nM] | IC50 [2] [nM] | Ki [2] [nM]
1 | GCGUCAUUCACAAAGACUGCUGAGCGUUCCUGCGGGGUCUCAGCAUCCAUU [fMps (6-FAM MNV subgenomic proscript)] | 500 |  | 
2 | GCGUCAUUCACAAAGACUGCUGAGCGUUCCUGCGGGGUCUCAGCAUCCAUU [Mps (MNV subgenomic proscript)] |  | 2360 | 680
3 | CUGCUGAGCGUUCCUGCGGGGUCUCAGCAU [Mhp (hairpin of Mps; also printed Mph)] |  | 16200 | 6300
